# Test results from the supplement of paper PMC6757056.
# ± gives the standard deviation of the averaged measurements.
# B1: library; a variant is named by its letters at N, in order (parent)
# chain: GCUGUCACCGGUGCUUGGUACGUUAUAUUCAGCCGGUCUGAUGAGUCUNNNNNNAGACGAAACAGC
# What was measured:
# [1] = variants of: B1; assay: normalized RNA/DNA level without ligand (relative to sTRSVctl = 100) (log10 (% of sTRSVctl)); HEK293T overexpressing SLC46A1; higher = less ribozyme self-cleavage, higher mRNA level; conditions: without (6R,S)-folinic acid; ligand present: no
# Outline: (§1)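 For each 6-well well, 4 µg of library plasmid encoding mCherry-linked ribozyme switches, or eGFP-linked ones in some ligand experiments, was transfected into HEK293T. Any ligand was added 1 h before transfection, and RNA was extracted with EDTA 72 h after it, then reverse-transcribed, amplified, barcoded and sequenced. RNA level was obtained by dividing RNA reads by DNA reads, normalizing to a spiked-in non-cleaving sequence or to the top sequences, then scaling and log-transforming. The top set was 25 sequences, scaling was ×100 with log10, and ≥100 DNA reads were required.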
# [2] = variants of: B1; assay: normalized RNA/DNA level with ligand (relative to sTRSVctl = 100) (log10 (% of sTRSVctl)); HEK293T overexpressing SLC46A1; ligand concentration (+) RNA-Seq: 6 mM; higher = less ribozyme self-cleavage, higher mRNA level; conditions: with (6R,S)-folinic acid; ligand present: yes
# Outline: as §1
Variant,normalized RNA/DNA level without ligand (log10) [1],normalized RNA/DNA level with ligand (log10) [2]
GCUGUCACCGGUGCUUGGUACGUUAUAUUCAGCCGGUCUGAUGAGUCUCGACAAAGACGAAACAGC [CGACAA],1.945 ± 0.013,1.96 ± 0.029
GCUGUCACCGGUGCUUGGUACGUUAUAUUCAGCCGGUCUGAUGAGUCUGCUGCAAGACGAAACAGC [GCUGCA],2.01 ± 0.022,2.03 ± 0.047
GCUGUCACCGGUGCUUGGUACGUUAUAUUCAGCCGGUCUGAUGAGUCUCGGUCCAGACGAAACAGC [CGGUCC],2.066 ± 0.013,2.03 ± 0.033
GCUGUCACCGGUGCUUGGUACGUUAUAUUCAGCCGGUCUGAUGAGUCUGCCCACAGACGAAACAGC [GCCCAC],2.02 ± 0.011,2.01 ± 0.034
GCUGUCACCGGUGCUUGGUACGUUAUAUUCAGCCGGUCUGAUGAGUCUCUCCAAAGACGAAACAGC [CUCCAA],2.03 ± 0.021,2.02 ± 0.025
GCUGUCACCGGUGCUUGGUACGUUAUAUUCAGCCGGUCUGAUGAGUCUCGCUCUAGACGAAACAGC [CGCUCU],2.1 ± 0.033,2.06 ± 0.033
GCUGUCACCGGUGCUUGGUACGUUAUAUUCAGCCGGUCUGAUGAGUCUGGCUAUAGACGAAACAGC [GGCUAU],2.051 ± 0.0061,2.01 ± 0.027
GCUGUCACCGGUGCUUGGUACGUUAUAUUCAGCCGGUCUGAUGAGUCUCGGCAAAGACGAAACAGC [CGGCAA],2.086 ± 0.0085,2.05 ± 0.023
GCUGUCACCGGUGCUUGGUACGUUAUAUUCAGCCGGUCUGAUGAGUCUCAGGAUAGACGAAACAGC [CAGGAU],1.9357 ± 0.0006,1.97 ± 0.049
GCUGUCACCGGUGCUUGGUACGUUAUAUUCAGCCGGUCUGAUGAGUCUACGGCUAGACGAAACAGC [ACGGCU],2.048 ± 0.014,2.04 ± 0.044
GCUGUCACCGGUGCUUGGUACGUUAUAUUCAGCCGGUCUGAUGAGUCUUGUGACAGACGAAACAGC [UGUGAC],1.949 ± 0.007,1.99 ± 0.016
GCUGUCACCGGUGCUUGGUACGUUAUAUUCAGCCGGUCUGAUGAGUCUGGUCACAGACGAAACAGC [GGUCAC],1.99 ± 0.031,2 ± 0.039
GCUGUCACCGGUGCUUGGUACGUUAUAUUCAGCCGGUCUGAUGAGUCUUGCCGCAGACGAAACAGC [UGCCGC],2.03 ± 0.031,2.02 ± 0.048
GCUGUCACCGGUGCUUGGUACGUUAUAUUCAGCCGGUCUGAUGAGUCUUGCCGAAGACGAAACAGC [UGCCGA],1.9547 ± 0.0011,2.02 ± 0.046
GCUGUCACCGGUGCUUGGUACGUUAUAUUCAGCCGGUCUGAUGAGUCUAGUGGGAGACGAAACAGC [AGUGGG],1.921 ± 0.019,2.04 ± 0.035
GCUGUCACCGGUGCUUGGUACGUUAUAUUCAGCCGGUCUGAUGAGUCUAUUUGAAGACGAAACAGC [AUUUGA],1.965 ± 0.0074,2 ± 0.053
GCUGUCACCGGUGCUUGGUACGUUAUAUUCAGCCGGUCUGAUGAGUCUUGACCCAGACGAAACAGC [UGACCC],2.041 ± 0.011,2.02 ± 0.026
GCUGUCACCGGUGCUUGGUACGUUAUAUUCAGCCGGUCUGAUGAGUCUUUUUUAAGACGAAACAGC [UUUUUA],2.002 ± 0.0053,2.007 ± 0.014
GCUGUCACCGGUGCUUGGUACGUUAUAUUCAGCCGGUCUGAUGAGUCUCGAUUUAGACGAAACAGC [CGAUUU],1.984 ± 0.0069,2 ± 0.026
GCUGUCACCGGUGCUUGGUACGUUAUAUUCAGCCGGUCUGAUGAGUCUGCCGGUAGACGAAACAGC [GCCGGU],2.067 ± 0.01,2.03 ± 0.034
GCUGUCACCGGUGCUUGGUACGUUAUAUUCAGCCGGUCUGAUGAGUCUUCCCACAGACGAAACAGC [UCCCAC],2.026 ± 0.012,2.02 ± 0.043
